# Assay results from patent US20190338048A1.
# Read-outs that look alike come from different tables or passages of the source.
# Experiments:
# [1] = target: CR8071 lambda light chain S122D_E124Q_T131R (L1 of design 3974, system C); experiment: SMCA: H1, L1, H2, L2 co-expressed, protein A, LC-MS
# [2] = target: CR8071 lambda light chain S122D_K129T_S176E_Y178E (L1 of design 3967, system C); experiment: as above
# [3] = target: CR8071 lambda light chain L1 S122D_Y178K (design 3954, System C); experiment: as above
# [4] = target: CR8071 lambda light chain L1 S122D_K129T_S176E_Y178E (designs 3951 and 3967, System C); experiment: as above
# [5] = target: CR8071 lambda light chain L1 S122D_K129T_S176E_Y178E (designs 3951 and 3967, System C); experiment: as above; remark: listed apart in the source
# [6] = target: CR8071 lambda light chain L1 Y178K (design 3957, System C); experiment: as above
# [7] = target: CR8071 lambda light chain L1, design 2892 (S176K_Y178K); experiment: SMCA: H1,L1,H2,L2 co-expressed, protein A, LC-MS
# [8] = target: CR8071 lambda light chain L1, design 2994 (E124Q_T131K); experiment: SMCA: H1,L1,H2,L2 co-expressed, protein A, LC-MS
# [9] = target: CR8071 lambda light chain L1, design 4320 (T116F_K129T_V133D_S176F); experiment: SMCA: H1,L1,H2,L2 co-expressed, protein A, LC-MS
# [10] = target: Design 3951 L1: CR8071 lambda light chain S122D_K129T_S176E_Y178E; experiment: SMCA: H1, L1, H2, L2 co-expressed, protein A, LC-MS
# [11] = target: Design 3954 L1: CR8071 lambda light chain S122D_Y178K; experiment: as above
# [12] = target: Design 3957 L2: SGN-CD19a kappa light chain Q124E_V133D_T178E; experiment: as above
# [13] = target: Design 3957 L2: SGN-CD19a kappa light chain Q124E_V133D_T178E; experiment: as above; remark: listed apart in the source
# [14] = target: SGN-CD19a kappa light chain L2 S121K_S131K_S176K (design 3951); experiment: as above
# [15] = target: SGN-CD19a kappa light chain L2 Q124E_V133D_L135W (design 3972, Systems B and C); experiment: as above
# [16] = target: SGN-CD19a kappa light chain L2 Q124E_V133D_T180D (design 3971, Systems B and C); experiment: as above
# [17] = target: SGN-CD19a kappa light chain L2 Q124E_V133D_L135W (design 3972, Systems B and C); experiment: as above; remark: listed apart in the source
# [18] = target: SGN-CD19a kappa light chain L2 Q124E_V133D_T180D (design 3971, Systems B and C); experiment: as above; remark: listed apart in the source
# [19] = target: SGN-CD19a kappa light chain L2 Q124E_V133D_T178E (design 3957, Systems B and C); experiment: as above
# [20] = target: SGN-CD19a kappa light chain L2 Q124E_V133D_T178E (design 3957, Systems B and C); experiment: as above; remark: listed apart in the source
# [21] = target: SGN-CD19a kappa light chain L2 S121K_S176E_T178E (design 3954, Systems B and C); experiment: as above
# [22] = target: SGN-CD19a kappa light chain L2 S121K_S176E_T178E (design 3954, Systems B and C); experiment: as above; remark: listed apart in the source
# [23] = target: SGN-CD19a kappa light chain L2, design 4320 (Q124K_L135A_T178R); experiment: SMCA: H1,L1,H2,L2 co-expressed, protein A, LC-MS
# [24] = target: SGN-CD19a kappa light chain V133G_L135W_S176D_T180E (L2 of design 3987, systems B and C); experiment: SMCA: H1, L1, H2, L2 co-expressed, protein A, LC-MS
# [25] = target: SGN-CD19a kappa light chain V133G_L135W_S176D_T180E (L2 of design 3987, systems B and C); experiment: as above; remark: listed apart in the source
# [26] = target: SGN-CD19a kappa light chain S121K_Q124R_T178R (L2 of design 3967, systems B and C); experiment: as above
# [27] = target: SGN-CD19a kappa light chain S121K_Q124R_T178R (L2 of design 3967, systems B and C); experiment: as above; remark: listed apart in the source
# [28] = target: SGN-CD19a kappa light chain Q124E_V133D_L135W (L2 of design 3972, systems B and C); experiment: as above
# [29] = target: SGN-CD19a kappa light chain Q124E_V133D_T180D (L2 of design 3971, systems B and C); experiment: as above
# [30] = target: SGN-CD19a kappa light chain Q124E_V133D_L135W (L2 of design 3972, systems B and C); experiment: as above; remark: listed apart in the source
# [31] = target: SGN-CD19a kappa light chain Q124E_V133D_T180D (L2 of design 3971, systems B and C); experiment: as above; remark: listed apart in the source
# [32] = target: SGN-CD19a kappa light chain S121K_Q124E_V133D (L2 of design 3974, systems B and C); experiment: as above
# [33] = target: SGN-CD19a kappa light chain S121K_Q124E_V133D (L2 of design 3974, systems B and C); experiment: as above; remark: listed apart in the source
# [34] = target: SGN-CD19a kappa light chain Q124E_V133D_L135A (L2 of design 3980, system B); experiment: as above
# [35] = target: SGN-CD19a kappa light chain S121K_V133I_S176D_T178E (L2 of design 3997, system B); experiment: as above
substance,measurement,setting,value
"CR8071 heavy chain A125R_L143D_K145T (H1 of design 3974, system C)",% H1L1 Pairing,[1],59.9%
same,Change in % H1L1 Pairing with respect to wild type,[1],11.5%
"CR8071 heavy chain A125R_S188K (H1 of design 3967, system C)",% H1L1 Pairing,[2],96.7%
same,Change in % H1L1 Pairing with respect to wild type,[2],28.6%
"CR8071 heavy chain H1 A125R_K145T_S188E (design 3954, System C)",% H1L1 Pairing,[3],89%
same,Change in % H1L1 Pairing with respect to wild type,[3],40.6%
"CR8071 heavy chain H1 A125R_S188K (designs 3951 and 3967, System C)",% H1L1 Pairing,[4],97.5%
same,Change in % H1L1 Pairing with respect to wild type,[4],29.4%
same,% H1L1 Pairing,[5],96.7%
same,Change in % H1L1 Pairing with respect to wild type,[5],28.6%
"CR8071 heavy chain H1 K145T_S188E (design 3957, System C)",% H1L1 Pairing,[6],87.2%
same,Change in % H1L1 Pairing with respect to wild type,[6],38.8%
"CR8071 heavy chain H1, design 2892 (K145T_V177D_S188D)",% H1L1 Pairing,[7],41.5%
same,Change in % H1L1 Pairing with respect to wild type,[7],-6.9%
"CR8071 heavy chain H1, design 2994 (L143E_K145T_Q179E)",% H1L1 Pairing,[8],26.3%
same,Change in % H1L1 Pairing with respect to wild type,[8],-22.1%
"CR8071 heavy chain H1, design 4320 (L143K_F174G)",% H1L1 Pairing,[9],96.6%
same,Change in % H1L1 Pairing with respect to wild type,[9],14.3%
Design 3951 H1: CR8071 heavy chain A125R_S188K,% H1L1 Pairing,[10],97.5%
same,Change in % H1L1 Pairing with respect to wild type,[10],29.4%
Design 3954 H1: CR8071 heavy chain A125R_K145T_S188E,% H1L1 Pairing,[11],89%
same,Change in % H1L1 Pairing with respect to wild type,[11],40.6%
Design 3957 H2: SGN-CD19a heavy chain L143R_S188K,% H2L2 Pairing,[12],85.4%
same,Change in % H2L2 Pairing with respect to wild type,[12],31.2%
same,% H2L2 Pairing,[13],99.7%
same,Change in % H2L2 Pairing with respect to wild type,[13],20.1%
SGN-CD19a heavy chain H2 K145T_S186E_K228D (design 3951),% H2L2 Pairing,[14],97.1%
same,Change in % H2L2 Pairing with respect to wild type,[14],25.8%
"SGN-CD19a heavy chain H2 L143R (designs 3971 and 3972, Systems B and C)",% H2L2 Pairing,[15],99.7%
same,Change in % H2L2 Pairing with respect to wild type,[15],45.5%
same,% H2L2 Pairing,[16],99.3%
same,Change in % H2L2 Pairing with respect to wild type,[16],45.1%
same,% H2L2 Pairing,[17],99.8%
same,Change in % H2L2 Pairing with respect to wild type,[17],20.2%
same,% H2L2 Pairing,[18],99.8%
same,Change in % H2L2 Pairing with respect to wild type,[18],20.2%
"SGN-CD19a heavy chain H2 L143R_S188K (design 3957, Systems B and C)",% H2L2 Pairing,[19],85.4%
same,Change in % H2L2 Pairing with respect to wild type,[19],31.2%
same,% H2L2 Pairing,[20],99.7%
same,Change in % H2L2 Pairing with respect to wild type,[20],20.1%
"SGN-CD19a heavy chain H2 S188K_K228D (design 3954, Systems B and C)",% H2L2 Pairing,[21],61.8%
same,Change in % H2L2 Pairing with respect to wild type,[21],7.6%
same,% H2L2 Pairing,[22],98.7%
same,Change in % H2L2 Pairing with respect to wild type,[22],19.1%
"SGN-CD19a heavy chain H2, design 4320 (L143E_K145T_Q179E_V190F)",% H2L2 Pairing,[23],81.4%
same,Change in % H2L2 Pairing with respect to wild type,[23],21.5%
"SGN-CD19a heavy chain L124R_S186K (H2 of design 3987, systems B and C)",% H2L2 Pairing,[24],98.1%
same,Change in % H2L2 Pairing with respect to wild type,[24],43.9%
same,% H2L2 Pairing,[25],99.3%
same,Change in % H2L2 Pairing with respect to wild type,[25],19.7%
"SGN-CD19a heavy chain L143E_K145T_Q179E_K228D (H2 of design 3967, systems B and C)",% H2L2 Pairing,[26],98.6%
same,Change in % H2L2 Pairing with respect to wild type,[26],44.4%
same,% H2L2 Pairing,[27],100%
same,Change in % H2L2 Pairing with respect to wild type,[27],28.7%
"SGN-CD19a heavy chain L143R (H2 of designs 3971 and 3972, systems B and C)",% H2L2 Pairing,[28],99.7%
same,Change in % H2L2 Pairing with respect to wild type,[28],45.5%
same,% H2L2 Pairing,[29],99.3%
same,Change in % H2L2 Pairing with respect to wild type,[29],45.1%
same,% H2L2 Pairing,[30],99.8%
same,Change in % H2L2 Pairing with respect to wild type,[30],20.2%
same,% H2L2 Pairing,[31],99.8%
same,Change in % H2L2 Pairing with respect to wild type,[31],20.2%
"SGN-CD19a heavy chain L143R_K228D (H2 of design 3974, systems B and C)",% H2L2 Pairing,[32],92.6%
same,Change in % H2L2 Pairing with respect to wild type,[32],38.4%
same,% H2L2 Pairing,[33],99.8%
same,Change in % H2L2 Pairing with respect to wild type,[33],20.2%
"SGN-CD19a heavy chain L143R_V190F (H2 of design 3980, system B)",% H2L2 Pairing,[34],82.6%
same,Change in % H2L2 Pairing with respect to wild type,[34],28.4%
"SGN-CD19a heavy chain S188K_K228D (H2 of design 3997, system B)",% H2L2 Pairing,[35],53%
same,Change in % H2L2 Pairing with respect to wild type,[35],-1.2%
